Measurements reported in patent publication US20050002950.

Biological target: recombinant human C5a (UniProt P01031)
Sequence (P01031 678-751): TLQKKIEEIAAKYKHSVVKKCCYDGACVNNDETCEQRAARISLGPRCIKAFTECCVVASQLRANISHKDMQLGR

ScpB, the C5a peptidase of GBS, on whole cells of strain COH1
C5a protease activity (C5a-stimulated PMN adherence to gelatin-coated plastic after preincubating C5a with GBS): Preincubation of C5a with COH1 or TOH121 abolished C5a activity
